How the values were obtained:
S. aureus ATCC 6538NA = experiment: Fur TFD growth assay in non-iron-limiting and iron-limiting media; format: cell-based, Staphylococcus aureus; conditions: 1 nM TFD; DOTAP, 60 nM gramicidin
Method: S. aureus ATCC 6538NA cultures were grown and maintained in BHI media (Becton Dickenson). Frozen stocks were prepared by mixing equal volumes of a culture in early exponential growth (OD of 0.3 at A600) with 50% glycerol and freezing at −80° C. BHI was the media used for non-iron limiting conditions and NRPMI, which had been prepared as previously described (Skaar et al. 2004), for iron-limiting growth conditions.
A stock solution of gramicidin (Sigma) was freshly prepared by dissolving 21 mg in 1 ml methanol, diluted prior to use in water and further diluting 1/100 in growth medium to give a final concentration of 60 nM. Supplemented media was inoculated 1/100 with the frozen S. aureus stock and incubated at room temperature for 10 min. TFD-DOTAP complexes were formed by mixing 1 ug of TFD with 2 μg of DOTAP (Roche) and incubating at room temperature for 10 min on the bench. The TFD complex was then mixed with inoculated medium, aliquoted into 96 well flat-bottomed plates and growth was analysed by culturing at 37° C. with shaking in a BioTek plate reader.
To achieve transfection, TFDs were mixed with the commercially available lipid preparation DOTAP to form a stable complex and shield the negative charge of the phosphate backbone. The TFD-DOTAP complex was then mixed with S. aureus in BHI, a non-iron limiting medium, which had been supplemented with 60 nM gramicidin. […]

S. aureus = experiment: Quantification of TFD number by real-time qPCR; format: cell-based, Staphylococcus aureus; conditions: in the presence of the transfection reagents; BHI
Method: Cells from individual wells were washed twice in PBS (phosphate buffered saline) and resuspended in 100 μl water. 1 μl of each sample was used in each qPCR reaction, mixing DNA standards or samples with primers to either amplify the TFD (Tef and Ter; SEQ ID NOs 1 & 2) or 16S rRNA (stypF, 5′-ACGGTCTTGCTGTCACTTATA-3′ (SEQ ID NO: 36); stypR, 5′-TACACATATGTTCTTCCCTAATAA-3′ (SEQ ID NO: 37)) in 12.5 ul of SYBR Green DNA mix supplemented with 0.5 μl of ROX (Invitrogen). The resultant data was used to calculate the number of TFDs present per genome.

[1] = tested on: methicillin-resistant strains (MRSA); experiment: Sig TFD growth assay on MRSA clinical isolates; format: cell-based, Staphylococcus aureus; conditions: 10 nM TFD; DOTAP, 60 nM Gramicidin
Method: Cholesterol/Cy5-labeled decoy polynucleotides were prepared as in Example 5.1. Typically 1 μg of Sig TFD was then complexed with 0.3 μl of the liposomal transfection reagent DOTAP (1,2-dioleoyl-3-trimethylammonium propane; Roche) and incubated at room temperature for 10 min. The assays to determine their effect on growth of bacterial cells were performed using 96 well plates, each well containing 200 μl of broth consisting of BHI media (Becton Dickinson) supplemented with 60 nM Gramicidin (Sigma Corporation. Cat# G5002). 1 μl of various concentrations of a Cholesterol/Cy5-labeled decoy complexed with TFD were added to each well and the effect on bacterial growth of clinical isolates of S. aureus that had been determined to be methicillin-resistant strains (MRSA) was monitored. Growth was monitored by measuring absorbance of the broth at time intervals during incubation. The plates were incubated at 37° C. with shaking and absorbance readings (at 450 nM) were taken using a plate reader.

EMRSA15 = experiment: Lag-time growth assay with antibiotics on EMRSA15; format: cell-based, Staphylococcus aureus; conditions: 10 nM TFD
Method: Sig dumbbell TFD was prepared as described in Example 9.1 (see below). A growth assay was carried out as described in Example 5.2 with a well-characterised MRSA strain, EMRSA15.
For the cultures treated with the Sig TFD, the lag-time is the delay in growth compared to that seen with the Control TFD in the presence of antibiotic.
Lagtime is defined as the time that growth is delayed (in comparison to a mock-transfected culture) due to treatment of the TFD.

[2] = tested on: clinically-isolated MRSA strain MRSA-5; experiment: Dumbbell Sig TFD growth assay on a clinically-isolated MRSA strain; format: cell-based, Staphylococcus aureus; conditions: 10 nM TFD, dumbbell configuration
Method: A growth assay was performed as described in Example 5.1 using the Sig TFD in its dumbbell configuration and a clinically-isolated MRSA strain.

K. pneumoniae [3] = experiment: Sigma 54 TFD growth assay, cell penetrating peptide transfection; format: cell-based, Klebsiella pneumoniae; conditions: 10 nM TFD; M9 media; complexed with cell penetrating peptide
Method: Growth assays were performed as described in Section 4.1 with the difference being that the media used was M9 media (Sambrook et al (1989) Molecular Cloning. 2nd Edition vol. 3 p.A3). The media was not supplemented with any co-transfectant.
Transfection was achieved by complexing the TFD with a cell penetrating peptide. The peptide consisted of two portions: a linear chain of nine D-arginines and a previously described peptide sequence found to be capable of penetrating the membrane of K. pneumoniae (Vaara, Antimicrobial Agents and Chemotherapy (1996) 40:1801). The positively charged arginines (R9) serve to bind the phosphate backbone of the TFD through a charge interaction. The use of such R9 tails to complex transfecting moieties to transfect bacteria has been described previously (Kim, Molecular Therapy (2006) 14:343). The entire sequence of the peptide used was:
TFDs were mixed with increasing amounts of IKFLKFLKKL-R9 peptide in a TE based buffer supplemented with 5% glucose. The mixture was incubated at room temperature for 1 hour and then either used directly in transfections or analysed by agarose gel electrophoresis. Typically the minimum amount of IKFLKFLKKL-R9 was used that caused the complex with DNA not to run in the gel; i.e. the charge of the nucleic acid backbone had been neutralised by binding of poly-arginine. […]

K. pneumoniae [4] = experiment: KP_Sig TFD growth assay in vitro; format: cell-based, Klebsiella pneumoniae; conditions: PCR_TFD, transfected using a cell penetrating peptide
Description: Cells were transfected as described in Example 13, using a cell penetrating peptide. […] The two controls used were: untreated cells (K. pneumoniae) and a control TFD consisting of a scrambled sequence.

B1: Control TFD: unrelated sequence of similar nucleotide composition that does not occur in the S. aureus genome, SEQ ID NOs: 34 & 35 (nucleic acid, listed as Mycobacterium smegmatis)
chain 1: TGGCCACGGATCCGGGTGACTGCGGGTCCGTA
chain 2: ACGGACCCGCAGTCACCCGGATCCGTGGCCAA
modifications: further chemistry not given here
growth of S. aureus in BHI, non-iron limiting medium (S. aureus ATCC 6538NA): reduction of the S. aureus growth rate | number of TFDs detected per genome (S. aureus): 5340 TFDs per genome | effect on growth of MRSA strains in BHI medium [1]: no effect on bacterial growth | Lagtime (EMRSA15; Ciprofloxacin 0.5 mg/L (text: 0.5 mg/ml)): 0.3 h | Lagtime (EMRSA15; Erythromycin 0.5 mg/L (text: 0.5 mg/ml)): -0.3 h | Lagtime (EMRSA15; Methicillin 2 mg/L (text: 2 mg/ml)): 0.2 h | inhibition of cell growth of clinically-isolated MRSA strain [2]: could not | inhibition of growth of K. pneumoniae culture (K. pneumoniae [3]): no inhibition was seen | effect on K. pneumoniae cell growth in vitro (K. pneumoniae [4]): no effect on cell growth

From patent US20180265915A1, “TRANSCRIPTION FACTOR DECOYS” (priority 2008, published 2018)
